Assay results: patent publication US7935785B2, “Selective substrates for matrix metalloproteinases” (Sanford-Burnham Medical Research Institute, priority 2001, dated 2011)

B1: Eph B1-Fc fusion protein: extracellular domain of rat EphB1 (residues 1-538) fused to Fc region of human IgG, R&D Systems (protein)
chain: MEETLMDTRTATAELGWTANPASGWEEVSGYDENLNTIRTYQVCNVFEPNQNNWLLTTFINRRGAHRIYTEMRFTVRDCSSLPNVPGSCKETFNLYYYETDSVIATKKSAFWSEAPYLKVDTIAADESFSQVDFGGRLMKVNTEVRSFGPLTRNGFYLAFQDYGACMSLLSVRVFFKKCPSIVQNFAVFPETMTGAESTSLVIARGTCIPNAEEVDVPIKLYCNGDGEWMVPIGRCTCKAGYEPENSVACKACPAGTFKASQEAEGCSHCPSNSRSPSEASPICTCRTGYYRADFDPPEVACTSVPSGPRNVISIVNETSIILEWHPPRETGGRDDVTYNIICKKCRADRRSCSRCDDNVEFVPRQLGLTECRVSISSLWAHTPYTFDIQAINGVSSKSPFPPQHVSVNITTNQAAPSTVPIMHQVSATMRSITLSWPQPEQPNGIILDYEIRYYEKEHNEFNSSMARSQTNTARIDGLRPGMVYVVQVRARTVAGYGKFSGKMCFQTLTDDDYKSELREQ
modifications: left off: small tags and cut ends; a dimerising Fc or GST
notes: extracellular domain of rat EphB1 (residues 1-538) fused to Fc region of human IgG, R&D Systems
B2: Eph B2 fusion protein: extracellular domain of mouse EphB2 (residues 1-548) fused to Fc region of human IgG, R&D Systems (protein)
chain: VEETLMDSTTATAELGWMVHPPSGWEEVSGYDENMNTIRTYQVCNVFESSQNNWLRTKFIRRRGAHRIHVEMKFSVRDCSSIPSVPGSCKETFNLYYYEADFDLATKTFPNWMENPWVKVDTIAADESFSQVDLGGRVMKINTEVRSFGPVSRNGFYLAFQDYGGCMSLIAVRVFYRKCPRIIQNGAIFQETLSGAESTSLVAARGSCIANAEEVDVPIKLYCNGDGEWLVPIGRCMCKAGFEAVENGTVCRGCPSGTFKANQGDEACTHCPINSRTTSEGATNCVCRNGYYRADLDPLDMPCTTIPSAPQAVISSVNETSLMLEWTPPRDSGGREDLVYNIICKSCGSGRGACTRCGDNVQYAPRQLGLTEPRIYISDLLAHTQYTFEIQAVNGVTDQSPFSPQFASVNITTNQAAPSAVSIMHQVSRTVDSITLSWSQPDQPNGVILDYELQYYEKELSEYNATAIKSPTNTVTVQGLKAGAIYVFQVRARTVAGYGRYSGKMYFQTMTEAEYQTSIKEKLPLIVGSS
modifications: left off: small tags and cut ends; a dimerising Fc or GST
notes: extracellular domain of mouse EphB2 (residues 1-548) fused to Fc region of human IgG, R&D Systems

Legend:
Format in all cases: biochemical
MT1-MMP = MT1-MMP (Homo sapiens, UniProt P50281); assay: Peptide substrate hydrolysis kinetics, selectivity between MT1-MMP and MMP-9; conditions: MT1-MMP substrates
Procedure: In order to measure the selectivity of individual substrates for one metalloproteinase over another, representative polypeptides from the selected phage were synthesized and their rate of hydrolysis by several matrix metalloproteinases was determined. In some cases these representative polypeptide sequences contained an amino-terminal serine (S) and glycine (G) and/or a carboxyl-terminal threonine (T) and alanine (A) since these residues were used in the construction of the phage substrate library, although one skilled in the art will understand that other amino acid residues could be substituted at these positions. The kinetic parameters of substrate hydrolysis were measured using a fluorescamine incorporation assay that has been described previously (Ding et al., PNAS, 92:7627-7631 (1995); Coombs et al., Chem. and Biol. 5:475-488 (1998); Fields et al., J. Biol. Chem., 262:6221-6226 (1987); Netzel-Arnett., et al. J. Biol. Chem., 266:6747-6755 (1991)).
Briefly, individual metalloproteinases were incubated with the individual polypeptide substrates at concentrations ranging from 100-800 µM. At selected time points the reactions were stopped by the addition of 1,10 phenanthroline. Polypeptide hydrolysis was determined by the addition of fluorescamine followed by detection at an excitation wavelength of 355 nm and an emission wavelength of 460 nm. The data were transformed to double reciprocal plots (1/[S] vs 1/vi) to determine Km and kcat. In some cases Km and kcat could not be determined individually, but the specificity constant, kcat/Km, was derived by the equation: […] (Netzel-Arnett, supra, and Zumla et al., J. Immunol. Methods 149:69-76 (1992)).
The selectivity ratio of each polypeptide substrate was calculated by dividing the kcat/Km value for one matrix metalloproteinase by the kcat/Km value for the other matrix metalloproteinases that were tested. […] In many cases the polypeptide substrates are selective for one matrix metalloproteinase compared to several other matrix metalloproteinases.
Polypeptide substrates for Membrane type-Matrix Metalloproteinase 1 (MT1-MMP) were identified using substrate phage display as described for MMP-2 and MMP-9. Synthetic peptides that are analogous to the phage sequences were used to quantitate the level of selectivity between MT1-MMP and MMP-9 (see Table II).

MMP-2 = biological target: T1, MMP-2 (Homo sapiens, UniProt P08253); assay: Cleavage of recombinant Eph receptor-Fc fusion proteins, SDS-PAGE; conditions: 1.8 μM fusion protein, 280 nM MMP-2, 4 hours, 37° C.
T1 construct: the cDNA encoding the catalytic domain of MMP-2 was generated by PCR; made in house; host or cells: HEK 293 cells
Procedure: (§1) Recombinant fusion proteins between EphB1, EphB2 and the Fc domain of IgG were purchased from R&D Systems Inc. In these constructs, the extracellular domain of rat EphB1 (amino acid residues 1-538) and mouse EphB2 (amino acid residues 1-548) are fused to the Fc region of human IgG via a short polypeptide linker. The fusion proteins (1.8 μM) were incubated for 4 hours at 37° C. with 280 nM of either MMP-2 or MMP-9. Following incubation, samples were resolved by 10% SDS-PAGE, and samples were visualized by Coomassie staining. The N-terminus of the cleaved Eph B1 was determined by automated Edman degradation of protein blotted to PVDF membranes.
(§2) The Eph B1 and Eph B2 fusion proteins were incubated with equimolar amounts (280 nM) of MMP-2 and MMP-9 for four hours. The extent of hydrolysis was gauged by SDS-PAGE (FIG. 3). […] The extent of cleavage by MMP-9 was far lower (lane 3). […] The site of hydrolysis within Eph B1 was determined by sequencing the N-terminus of one of the released fragments. […] This is one of the predicted cleavage sites in EphB1. These findings illustrate that motifs found to be selective for MMP-2 by substrate phage display, can act as selective substrates within the context of whole proteins. This experiment also illustrates that the three dimensional conformation of the putative cleavage site will also control the extent of hydrolysis.

MMP-9 = biological target: T2, MMP-9 (Homo sapiens, UniProt P14780); assay: as above; conditions: 1.8 μM fusion protein, 280 nM MMP-9, 4 hours, 37° C.
T2 construct: a recombinant form of the catalytic domain of MMP-9 expressed in HEK 293 cells; made in house; host or cells: HEK 293 cells
Procedure: as §1, §2

T2 sequence (P14780 94-444 limits assumed): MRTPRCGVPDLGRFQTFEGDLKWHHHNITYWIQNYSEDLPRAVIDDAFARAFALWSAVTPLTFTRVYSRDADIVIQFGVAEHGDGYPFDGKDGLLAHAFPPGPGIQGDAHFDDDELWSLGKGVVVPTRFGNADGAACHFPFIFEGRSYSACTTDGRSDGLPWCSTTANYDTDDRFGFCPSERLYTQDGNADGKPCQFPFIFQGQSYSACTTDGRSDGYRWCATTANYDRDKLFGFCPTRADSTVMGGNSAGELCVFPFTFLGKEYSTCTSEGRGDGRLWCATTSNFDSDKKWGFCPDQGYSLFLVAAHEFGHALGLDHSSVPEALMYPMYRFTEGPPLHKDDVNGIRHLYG
T1 sequence (P08253 110-465 limits assumed): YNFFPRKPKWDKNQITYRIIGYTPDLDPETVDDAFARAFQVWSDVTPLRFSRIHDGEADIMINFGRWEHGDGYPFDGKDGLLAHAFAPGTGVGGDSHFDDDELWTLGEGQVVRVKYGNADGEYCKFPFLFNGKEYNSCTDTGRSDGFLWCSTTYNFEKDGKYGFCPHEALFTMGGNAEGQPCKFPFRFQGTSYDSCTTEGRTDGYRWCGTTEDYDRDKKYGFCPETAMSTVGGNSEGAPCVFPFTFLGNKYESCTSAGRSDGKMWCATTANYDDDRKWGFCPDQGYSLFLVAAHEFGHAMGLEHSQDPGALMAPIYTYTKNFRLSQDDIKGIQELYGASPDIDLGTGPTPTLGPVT

Molecule | selectivity ratio: kcat/Km for MT1-MMP divided by kcat/Km for MMP-9 (MT1-MMP) | extent of hydrolysis by MMP-2 (SDS-PAGE) (MMP-2) | extent of hydrolysis by MMP-9 (SDS-PAGE) (MMP-9)
A42: MT1-MMP selective substrate peptide from phage clone A42, sequence S-G-R-I-G-F-L-R-T-A (Table V) (RIGFLRT) | 54 |  | 
B149: MT1-MMP selective substrate peptide from phage clone B149, sequence S-G-A-R-Y-R-W-L-T-A (Table V) (ARYRWLTA) | 3 |  | 
B1 |  | almost quantitatively cleaved | far lower
B2 |  | Neither protease cleaved | Neither protease cleaved
